US20160272683A1 (Novo Nordisk, published 2016)
Each block holds one binder with its values, some of them ahead of it. * marks the point of attachment. C18 diacid = O=C(O)CCCCCCCCCCCCCCCCC(=O)*

Legend:
[1] = biological target: T1, human amylin 3(a) receptor (human calcitonin receptor co-expressed with RAMP-3) (human, UniProt P30988 25-474; O60896 24-148, limits assumed); assay: cell-based or functional assay
T1 sequence (looked up) 1: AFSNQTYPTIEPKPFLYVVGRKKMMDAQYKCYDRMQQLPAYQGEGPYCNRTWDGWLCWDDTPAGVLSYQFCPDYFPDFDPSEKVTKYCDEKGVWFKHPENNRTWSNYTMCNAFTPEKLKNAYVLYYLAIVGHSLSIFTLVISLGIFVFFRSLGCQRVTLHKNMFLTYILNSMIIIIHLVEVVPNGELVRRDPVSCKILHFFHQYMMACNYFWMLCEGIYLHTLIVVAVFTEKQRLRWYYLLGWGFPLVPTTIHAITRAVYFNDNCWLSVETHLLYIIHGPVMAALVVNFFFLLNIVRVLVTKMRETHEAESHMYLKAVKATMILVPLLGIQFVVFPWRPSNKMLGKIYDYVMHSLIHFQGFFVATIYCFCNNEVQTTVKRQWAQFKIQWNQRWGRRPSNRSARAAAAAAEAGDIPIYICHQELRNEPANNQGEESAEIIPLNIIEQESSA
T1 sequence (looked up) 2: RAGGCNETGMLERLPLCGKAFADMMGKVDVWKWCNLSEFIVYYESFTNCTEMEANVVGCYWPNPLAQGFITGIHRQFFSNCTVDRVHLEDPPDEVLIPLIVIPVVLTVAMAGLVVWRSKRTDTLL

[2] = biological target: T2, human calcitonin receptor (human, UniProt P30988 25-474); assay: cell-based or functional assay
T2 sequence (looked up): T1 sequence (looked up) 1

B3: [N-terminal(C18 diacid), 2P, 9V]mimylin (peptide)
peptide: {C18 diacid}-EPSELSTAVLGRLSAELHELATLPRTETGPESP-NH2
SMILES: CC(C)C[C@H](NC(=O)[C@H](CCC(=O)O)NC(=O)[C@H](Cc1c[nH]cn1)NC(=O)[C@H](CC(C)C)NC(=O)[C@H](CCC(=O)O)NC(=O)[C@H](C)NC(=O)[C@H](CO)NC(=O)[C@H](CC(C)C)NC(=O)[C@H](CCCNC(=N)N)NC(=O)CNC(=O)[C@H](CC(C)C)NC(=O)[C@@H](NC(=O)[C@H](C)NC(=O)[C@@H](NC(=O)[C@H](CO)NC(=O)[C@H](CC(C)C)NC(=O)[C@H](CCC(=O)O)NC(=O)[C@H](CO)NC(=O)[C@@H]1CCCN1C(=O)[C@H](CCC(=O)O)NC(=O)CCCCCCCCCCCCCCCCC(=O)O)[C@@H](C)O)C(C)C)C(=O)N[C@@H](C)C(=O)N[C@H](C(=O)N[C@@H](CC(C)C)C(=O)N1CCC[C@H]1C(=O)N[C@@H](CCCNC(=N)N)C(=O)N[C@H](C(=O)N[C@@H](CCC(=O)O)C(=O)N[C@H](C(=O)NCC(=O)N1CCC[C@H]1C(=O)N[C@@H](CCC(=O)O)C(=O)N[C@@H](CO)C(=O)N1CCC[C@H]1C(N)=O)[C@@H](C)O)[C@@H](C)O)[C@@H](C)O
hAmylin-R funct. EC50 (pM) [1]: 8 pM
hCTR funct. EC50 (pM) [2]: 7 pM

B5: [N-terminal(C18 diacid), 4P, 9V]mimylin (peptide)
peptide: {C18 diacid}-EASPLSTAVLGRLSAELHELATLPRTETGPESP-NH2
SMILES: CC(C)C[C@H](NC(=O)[C@H](CCC(=O)O)NC(=O)[C@H](Cc1c[nH]cn1)NC(=O)[C@H](CC(C)C)NC(=O)[C@H](CCC(=O)O)NC(=O)[C@H](C)NC(=O)[C@H](CO)NC(=O)[C@H](CC(C)C)NC(=O)[C@H](CCCNC(=N)N)NC(=O)CNC(=O)[C@H](CC(C)C)NC(=O)[C@@H](NC(=O)[C@H](C)NC(=O)[C@@H](NC(=O)[C@H](CO)NC(=O)[C@H](CC(C)C)NC(=O)[C@@H]1CCCN1C(=O)[C@H](CO)NC(=O)[C@H](C)NC(=O)[C@H](CCC(=O)O)NC(=O)CCCCCCCCCCCCCCCCC(=O)O)[C@@H](C)O)C(C)C)C(=O)N[C@@H](C)C(=O)N[C@H](C(=O)N[C@@H](CC(C)C)C(=O)N1CCC[C@H]1C(=O)N[C@@H](CCCNC(=N)N)C(=O)N[C@H](C(=O)N[C@@H](CCC(=O)O)C(=O)N[C@H](C(=O)NCC(=O)N1CCC[C@H]1C(=O)N[C@@H](CCC(=O)O)C(=O)N[C@@H](CO)C(=O)N1CCC[C@H]1C(N)=O)[C@@H](C)O)[C@@H](C)O)[C@@H](C)O
hAmylin-R funct. EC50 (pM) [1]: 14 pM
hCTR funct. EC50 (pM) [2]: 7 pM

B6: [N-terminal(C18 diacid), 3P, 9V]mimylin (peptide)
peptide: {C18 diacid}-EAPELSTAVLGRLSAELHELATLPRTETGPESP-NH2
SMILES: CC(C)C[C@H](NC(=O)[C@H](CCC(=O)O)NC(=O)[C@H](Cc1c[nH]cn1)NC(=O)[C@H](CC(C)C)NC(=O)[C@H](CCC(=O)O)NC(=O)[C@H](C)NC(=O)[C@H](CO)NC(=O)[C@H](CC(C)C)NC(=O)[C@H](CCCNC(=N)N)NC(=O)CNC(=O)[C@H](CC(C)C)NC(=O)[C@@H](NC(=O)[C@H](C)NC(=O)[C@@H](NC(=O)[C@H](CO)NC(=O)[C@H](CC(C)C)NC(=O)[C@H](CCC(=O)O)NC(=O)[C@@H]1CCCN1C(=O)[C@H](C)NC(=O)[C@H](CCC(=O)O)NC(=O)CCCCCCCCCCCCCCCCC(=O)O)[C@@H](C)O)C(C)C)C(=O)N[C@@H](C)C(=O)N[C@H](C(=O)N[C@@H](CC(C)C)C(=O)N1CCC[C@H]1C(=O)N[C@@H](CCCNC(=N)N)C(=O)N[C@H](C(=O)N[C@@H](CCC(=O)O)C(=O)N[C@H](C(=O)NCC(=O)N1CCC[C@H]1C(=O)N[C@@H](CCC(=O)O)C(=O)N[C@@H](CO)C(=O)N1CCC[C@H]1C(N)=O)[C@@H](C)O)[C@@H](C)O)[C@@H](C)O
hAmylin-R funct. EC50 (pM) [1]: 10 pM
hCTR funct. EC50 (pM) [2]: 7 pM

Results, then the binder that gave them:

hAmylin-R funct. EC50 (pM) [1]: 8 pM
hCTR funct. EC50 (pM) [2]: 4 pM
B1: [N-terminal(C18 diacid), 9L, 10A]mimylin (peptide)
peptide: {C18 diacid}-EASELSTALAGRLSAELHELATLPRTETGPESP-NH2
SMILES: CC(C)C[C@H](NC(=O)[C@H](C)NC(=O)[C@@H](NC(=O)[C@H](CO)NC(=O)[C@H](CC(C)C)NC(=O)[C@H](CCC(=O)O)NC(=O)[C@H](CO)NC(=O)[C@H](C)NC(=O)[C@H](CCC(=O)O)NC(=O)CCCCCCCCCCCCCCCCC(=O)O)[C@@H](C)O)C(=O)N[C@@H](C)C(=O)NCC(=O)N[C@@H](CCCNC(=N)N)C(=O)N[C@@H](CC(C)C)C(=O)N[C@@H](CO)C(=O)N[C@@H](C)C(=O)N[C@@H](CCC(=O)O)C(=O)N[C@@H](CC(C)C)C(=O)N[C@@H](Cc1c[nH]cn1)C(=O)N[C@@H](CCC(=O)O)C(=O)N[C@@H](CC(C)C)C(=O)N[C@@H](C)C(=O)N[C@H](C(=O)N[C@@H](CC(C)C)C(=O)N1CCC[C@H]1C(=O)N[C@@H](CCCNC(=N)N)C(=O)N[C@H](C(=O)N[C@@H](CCC(=O)O)C(=O)N[C@H](C(=O)NCC(=O)N1CCC[C@H]1C(=O)N[C@@H](CCC(=O)O)C(=O)N[C@@H](CO)C(=O)N1CCC[C@H]1C(N)=O)[C@@H](C)O)[C@@H](C)O)[C@@H](C)O

hAmylin-R funct. EC50 (pM) [1]: 8 pM
hCTR funct. EC50 (pM) [2]: 5 pM
B2: [N-terminal(C18 diacid)]mimylin (peptide)
peptide: {C18 diacid}-EASELSTAALGRLSAELHELATLPRTETGPESP-NH2
SMILES: CC(C)C[C@H](NC(=O)[C@H](C)NC(=O)[C@H](C)NC(=O)[C@@H](NC(=O)[C@H](CO)NC(=O)[C@H](CC(C)C)NC(=O)[C@H](CCC(=O)O)NC(=O)[C@H](CO)NC(=O)[C@H](C)NC(=O)[C@H](CCC(=O)O)NC(=O)CCCCCCCCCCCCCCCCC(=O)O)[C@@H](C)O)C(=O)NCC(=O)N[C@@H](CCCNC(=N)N)C(=O)N[C@@H](CC(C)C)C(=O)N[C@@H](CO)C(=O)N[C@@H](C)C(=O)N[C@@H](CCC(=O)O)C(=O)N[C@@H](CC(C)C)C(=O)N[C@@H](Cc1c[nH]cn1)C(=O)N[C@@H](CCC(=O)O)C(=O)N[C@@H](CC(C)C)C(=O)N[C@@H](C)C(=O)N[C@H](C(=O)N[C@@H](CC(C)C)C(=O)N1CCC[C@H]1C(=O)N[C@@H](CCCNC(=N)N)C(=O)N[C@H](C(=O)N[C@@H](CCC(=O)O)C(=O)N[C@H](C(=O)NCC(=O)N1CCC[C@H]1C(=O)N[C@@H](CCC(=O)O)C(=O)N[C@@H](CO)C(=O)N1CCC[C@H]1C(N)=O)[C@@H](C)O)[C@@H](C)O)[C@@H](C)O

hAmylin-R funct. EC50 (pM) [1]: 10 pM
hCTR funct. EC50 (pM) [2]: 7 pM
B4: [N-terminal(C18 diacid), 5I, 9I]mimylin (peptide)
peptide: {C18 diacid}-EASEISTAILGRLSAELHELATLPRTETGPESP-NH2
SMILES: CC[C@H](C)[C@H](NC(=O)[C@H](C)NC(=O)[C@@H](NC(=O)[C@H](CO)NC(=O)[C@@H](NC(=O)[C@H](CCC(=O)O)NC(=O)[C@H](CO)NC(=O)[C@H](C)NC(=O)[C@H](CCC(=O)O)NC(=O)CCCCCCCCCCCCCCCCC(=O)O)[C@@H](C)CC)[C@@H](C)O)C(=O)N[C@@H](CC(C)C)C(=O)NCC(=O)N[C@@H](CCCNC(=N)N)C(=O)N[C@@H](CC(C)C)C(=O)N[C@@H](CO)C(=O)N[C@@H](C)C(=O)N[C@@H](CCC(=O)O)C(=O)N[C@@H](CC(C)C)C(=O)N[C@@H](Cc1c[nH]cn1)C(=O)N[C@@H](CCC(=O)O)C(=O)N[C@@H](CC(C)C)C(=O)N[C@@H](C)C(=O)N[C@H](C(=O)N[C@@H](CC(C)C)C(=O)N1CCC[C@H]1C(=O)N[C@@H](CCCNC(=N)N)C(=O)N[C@H](C(=O)N[C@@H](CCC(=O)O)C(=O)N[C@H](C(=O)NCC(=O)N1CCC[C@H]1C(=O)N[C@@H](CCC(=O)O)C(=O)N[C@@H](CO)C(=O)N1CCC[C@H]1C(N)=O)[C@@H](C)O)[C@@H](C)O)[C@@H](C)O

hAmylin-R funct. EC50 (pM) [1]: 7 pM
hCTR funct. EC50 (pM) [2]: 6 pM
B7: [N-terminal(C18 diacid), 9V, 10I]mimylin (peptide)
peptide: {C18 diacid}-EASELSTAVIGRLSAELHELATLPRTETGPESP-NH2
SMILES: CC[C@H](C)[C@H](NC(=O)[C@@H](NC(=O)[C@H](C)NC(=O)[C@@H](NC(=O)[C@H](CO)NC(=O)[C@H](CC(C)C)NC(=O)[C@H](CCC(=O)O)NC(=O)[C@H](CO)NC(=O)[C@H](C)NC(=O)[C@H](CCC(=O)O)NC(=O)CCCCCCCCCCCCCCCCC(=O)O)[C@@H](C)O)C(C)C)C(=O)NCC(=O)N[C@@H](CCCNC(=N)N)C(=O)N[C@@H](CC(C)C)C(=O)N[C@@H](CO)C(=O)N[C@@H](C)C(=O)N[C@@H](CCC(=O)O)C(=O)N[C@@H](CC(C)C)C(=O)N[C@@H](Cc1c[nH]cn1)C(=O)N[C@@H](CCC(=O)O)C(=O)N[C@@H](CC(C)C)C(=O)N[C@@H](C)C(=O)N[C@H](C(=O)N[C@@H](CC(C)C)C(=O)N1CCC[C@H]1C(=O)N[C@@H](CCCNC(=N)N)C(=O)N[C@H](C(=O)N[C@@H](CCC(=O)O)C(=O)N[C@H](C(=O)NCC(=O)N1CCC[C@H]1C(=O)N[C@@H](CCC(=O)O)C(=O)N[C@@H](CO)C(=O)N1CCC[C@H]1C(N)=O)[C@@H](C)O)[C@@H](C)O)[C@@H](C)O
